Assay results published in patent US6534267 (dated 2003).

Target: the molecule itself
Assay: gel filtration of purified native Smac (self-association)

B1: 25-kDa Smac (second mitochondria-derived activator of caspase), native mature protein from HeLa cells (other)
chain: AVPIAQKSEPHSLSSEALMRRAVSLVTDSTSTFLSQTTYALIEAITEYTKAVYTLTSLYRQYTSLLGKMNSEEEDEVWQVIIGARAEMTSKHQEYLKLETTWMTAVGLSEMAAEAAYQTGADQASITARNHIQLVKLQVEEVHQLSRKAETKLAEAQIEELRQKTQEEGEERAESEQEAYLRED
notes: The HeLa protein is also about 25 kDa; Gel filtration points to a homotetramer; also called 25-kDa protein; native Smac
  binding result: binds
